From patent publication US20230212549A1 (3B PHARMACEUTICALS, published 2023)
Numbered stars: 1 amine (or outer) side, 2 acyl side, 3 side chain; on linkers, the order of the positions; unused ones are H or OH. Bridge positions count the residues as written; N and C are the ends. Square brackets hold non-standard residues; d marks the D form. Primed or numbered codes have the meaning given here. * marks the point of attachment. Ttds″ = 1,13-diamino-4,7,10-trioxatridecan-succinamic acid spacer, O=C(CCC(=O)[*:2])NCCCOCCOCCOCCCN[*:1]; Ttds(4) = spacer between chelator and peptide, O=C(CCC(=O)[*:2])NCCCOCCOCCOCCCN[*:1]; DOTA = O=C(O)CN1CCN(CC(=O)O)CCN(CC(=O)*)CCN(CC(=O)O)CC1; mXylylene = c1cc(C[*:1])cc(C[*:2])c1; NMeF = CN[C@@H](Cc1ccccc1)C(=O)O; αMeF = C[C@](N)(Cc1ccccc1)C(=O)O; 4Pal = N[C@@H](Cc1ccncc1)C(=O)O; 4Amb = NCc1ccc(C(=O)O)cc1; Nle = CCCC[C@H](N)C(=O)O; Hexanoyl = CCCCCC(=O)*; Omp = not defined here

Columns and labels:
[1] = biological target: T1, fibroblast activation protein (FAP) on FAP-expressing human WI-38 fibroblasts (human, UniProt Q12884 1-760); assay: competitive FACS, WI-38 cells, vs Cy5 tracer m3; A = pIC50 >8.0
T1 construct: also called human FAP

[2] = biological target: Recombinant human FAP (R&D systems, #3715-SE) (human, UniProt Q12884 26-760); assay: cell-based or functional assay
[3] = biological target: T2, Recombinant human FAP (R&D systems, #3715-SE) (human, UniProt Q12884 26-760); assay: SPR (Biacore T200), FAP captured on anti-FAP antibody, single cycle kinetics
T2 construct: bought; in SPR captured on immobilized anti-FAP antibody MAB3715; also called rhFAP; human recombinant FAP

Binder	pIC50 Category (FACS) [1] [pIC50]	pIC50 Category (Activity) [2] [pIC50]	pKD Category [3] [pKD]
Ac-MCPPTEFCDHFR[dD]-NH2 (linker 2-8 via mXylylene; SMILES CSCC[C@H](NC(C)=O)C(=O)N[C@H]1CSCc2cccc(c2)CSC[C@@H](C(=O)N[C@@H](CC(=O)O)C(=O)N[C@@H](Cc2c[nH]cn2)C(=O)N[C@@H](Cc2ccccc2)C(=O)N[C@@H](CCCNC(=N)N)C(=O)N[C@H](CC(=O)O)C(N)=O)NC(=O)[C@H](Cc2ccccc2)NC(=O)[C@H](CCC(=O)O)NC(=O)[C@H]([C@@H](C)O)NC(=O)[C@@H]2CCCN2C(=O)[C@@H]2CCCN2C1=O, also called 3BP-3213) [Ac-Met-[Cys(3MeBn)-Pro-Pro-Thr-Glu-Phe-Cys]-Asp-His-Phe-Arg-asp-NH2]	> 8	> 8	–
Ac-MCPPTEFCDHF[dR]D-NH2 (linker 2-8 via mXylylene; SMILES CSCC[C@H](NC(C)=O)C(=O)N[C@H]1CSCc2cccc(c2)CSC[C@@H](C(=O)N[C@@H](CC(=O)O)C(=O)N[C@@H](Cc2c[nH]cn2)C(=O)N[C@@H](Cc2ccccc2)C(=O)N[C@H](CCCNC(=N)N)C(=O)N[C@@H](CC(=O)O)C(N)=O)NC(=O)[C@H](Cc2ccccc2)NC(=O)[C@H](CCC(=O)O)NC(=O)[C@H]([C@@H](C)O)NC(=O)[C@@H]2CCCN2C(=O)[C@@H]2CCCN2C1=O, also called 3BP-3212) [Ac-Met-[Cys(3MeBn)-Pro-Pro-Thr-Glu-Phe-Cys]-Asp-His-Phe-arg-Asp-NH2]	> 8	> 8	–
Hexanoyl-CPPTEFCD[Omp]R-NH2 (linker 1-7 via mXylylene; reading uncertain; also: printed as Hex-[Cys(3MeBn)-Pro-Pro-Thr-Glu-Phe-Cys]-Asp-Omp-Arg-NH2, also called 3BP-3302) [Hex-[Cys(3MeBn)-Pro-Pro-Thr-Glu-Phe-Cys]-Asp-Omp-Arg-NH2]	> 8	> 8	–
Hexanoyl-CPPTEFC-NH2 (linker 1-7 via tMeBn(DOTA-AET), also called 3BP-3653) [Hex-[Cys(tMeBn(DOTA-AET))-Pro-Pro-Thr-Glu-Phe-Cys]-NH2]	–	–	> 8
Hexanoyl-CPPTEFCD[4Amb]R-NH2 (linker 1-7 via mXylylene; SMILES CCCCCC(=O)N[C@H]1CSCc2cccc(c2)CSC[C@@H](C(=O)N[C@@H](CC(=O)O)C(=O)NCc2ccc(C(=O)N[C@@H](CCCNC(=N)N)C(N)=O)cc2)NC(=O)[C@H](Cc2ccccc2)NC(=O)[C@H](CCC(=O)O)NC(=O)[C@H]([C@@H](C)O)NC(=O)[C@@H]2CCCN2C(=O)[C@@H]2CCCN2C1=O, also called 3BP-3301) [Hex-[Cys(3MeBn)-Pro-Pro-Thr-Glu-Phe-Cys]-Asp-Pamb-Arg-NH2]	> 8	> 8	–
Hexanoyl-CPPTEFCDH[dF]R[Ttds″]K(DOTA)-NH2 (linker 1-7 via mXylylene; SMILES CCCCCC(=O)N[C@H]1CSCc2cccc(c2)CSC[C@@H](C(=O)N[C@@H](CC(=O)O)C(=O)N[C@@H](Cc2c[nH]cn2)C(=O)N[C@H](Cc2ccccc2)C(=O)N[C@@H](CCCNC(=N)N)C(=O)NCCCOCCOCCOCCCNC(=O)CCC(=O)N[C@@H](CCCCNC(=O)CN2CCN(CC(=O)O)CCN(CC(=O)O)CCN(CC(=O)O)CC2)C(N)=O)NC(=O)[C@H](Cc2ccccc2)NC(=O)[C@H](CCC(=O)O)NC(=O)[C@H]([C@@H](C)O)NC(=O)[C@@H]2CCCN2C(=O)[C@@H]2CCCN2C1=O, also called 3BP-3276) [Hex-[Cys(3MeBn)-Pro-Pro-Thr-Glu-Phe-Cys]-Asp-His-phe-Arg-Ttds-Lys(DOTA)-NH2]	> 8	> 8	–
Hexanoyl-CPPTEFCDH[NMeF]R[Ttds″]K(DOTA)-NH2 (linker 1-7 via mXylylene; SMILES CCCCCC(=O)N[C@H]1CSCc2cccc(c2)CSC[C@@H](C(=O)N[C@@H](CC(=O)O)C(=O)N[C@@H](Cc2c[nH]cn2)C(=O)N(C)[C@@H](Cc2ccccc2)C(=O)N[C@@H](CCCNC(=N)N)C(=O)NCCCOCCOCCOCCCNC(=O)CCC(=O)N[C@@H](CCCCNC(=O)CN2CCN(CC(=O)O)CCN(CC(=O)O)CCN(CC(=O)O)CC2)C(N)=O)NC(=O)[C@H](Cc2ccccc2)NC(=O)[C@H](CCC(=O)O)NC(=O)[C@H]([C@@H](C)O)NC(=O)[C@@H]2CCCN2C(=O)[C@@H]2CCCN2C1=O, also called 3BP-3275) [Hex-[Cys(3MeBn)-Pro-Pro-Thr-Glu-Phe-Cys]-Asp-His-Nmf-Arg-Ttds-Lys(DOTA)-NH2]	> 8	> 8	–
Ac-MCPPTEFCD[dH]FRD-NH2 (linker 2-8 via mXylylene; SMILES CSCC[C@H](NC(C)=O)C(=O)N[C@H]1CSCc2cccc(c2)CSC[C@@H](C(=O)N[C@@H](CC(=O)O)C(=O)N[C@H](Cc2c[nH]cn2)C(=O)N[C@@H](Cc2ccccc2)C(=O)N[C@@H](CCCNC(=N)N)C(=O)N[C@@H](CC(=O)O)C(N)=O)NC(=O)[C@H](Cc2ccccc2)NC(=O)[C@H](CCC(=O)O)NC(=O)[C@H]([C@@H](C)O)NC(=O)[C@@H]2CCCN2C(=O)[C@@H]2CCCN2C1=O, also called 3BP-3210) [Ac-Met-[Cys(3MeBn)-Pro-Pro-Thr-Glu-Phe-Cys]-Asp-his-Phe-Arg-Asp-NH2]	> 8	> 8	–
Hexanoyl-CPPTEFCDR-NH2 (linker 1-7 via mXylylene; SMILES CCCCCC(=O)N[C@H]1CSCc2cccc(c2)CSC[C@@H](C(=O)N[C@@H](CC(=O)O)C(=O)N[C@@H](CCCNC(=N)N)C(N)=O)NC(=O)[C@H](Cc2ccccc2)NC(=O)[C@H](CCC(=O)O)NC(=O)[C@H]([C@@H](C)O)NC(=O)[C@@H]2CCCN2C(=O)[C@@H]2CCCN2C1=O, also called 3BP-3299) [Hex-[Cys(3MeBn)-Pro-Pro-Thr-Glu-Phe-Cys]-Asp-Arg-NH2]	> 8	> 8	–
Ac-MCPPTEFCDH[αMeF]RD-NH2 (linker 2-8 via mXylylene; SMILES CSCC[C@H](NC(C)=O)C(=O)N[C@H]1CSCc2cccc(c2)CSC[C@@H](C(=O)N[C@@H](CC(=O)O)C(=O)N[C@@H](Cc2c[nH]cn2)C(=O)N[C@@](C)(Cc2ccccc2)C(=O)N[C@@H](CCCNC(=N)N)C(=O)N[C@@H](CC(=O)O)C(N)=O)NC(=O)[C@H](Cc2ccccc2)NC(=O)[C@H](CCC(=O)O)NC(=O)[C@H]([C@@H](C)O)NC(=O)[C@@H]2CCCN2C(=O)[C@@H]2CCCN2C1=O, also called 3BP-3203) [Ac-Met-[Cys(3MeBn)-Pro-Pro-Thr-Glu-Phe-Cys]-Asp-His-Amf-Arg-Asp-NH2]	> 8	> 8	–
{DOTA}-[Ttds(4)][Nle]CPPTQFCD-NH2 (linker 3-9 via mXylylene; SMILES CCCC[C@H](NC(=O)CCC(=O)NCCCOCCOCCOCCCNC(=O)CN1CCN(CC(=O)O)CCN(CC(=O)O)CCN(CC(=O)O)CC1)C(=O)N[C@H]1CSCc2cccc(c2)CSC[C@@H](C(=O)N[C@@H](CC(=O)O)C(N)=O)NC(=O)[C@H](Cc2ccccc2)NC(=O)[C@H](CCC(N)=O)NC(=O)[C@H]([C@@H](C)O)NC(=O)[C@@H]2CCCN2C(=O)[C@@H]2CCCN2C1=O, also called 3BP-3401) [DOTA-Ttds-Nle-[Cys(3MeBn)-Pro-Pro-Thr-Gln-Phe-Cys]-Asp-NH2]	–	–	> 8
Ac-CPPTEFCDHFRD-NH2 (linker 1-7 via mXylylene; SMILES CC(=O)N[C@H]1CSCc2cccc(c2)CSC[C@@H](C(=O)N[C@@H](CC(=O)O)C(=O)N[C@@H](Cc2c[nH]cn2)C(=O)N[C@@H](Cc2ccccc2)C(=O)N[C@@H](CCCNC(=N)N)C(=O)N[C@@H](CC(=O)O)C(N)=O)NC(=O)[C@H](Cc2ccccc2)NC(=O)[C@H](CCC(=O)O)NC(=O)[C@H]([C@@H](C)O)NC(=O)[C@@H]2CCCN2C(=O)[C@@H]2CCCN2C1=O, also called 3BP-3202) [Ac-[Cys(3MeBn)-Pro-Pro-Thr-Glu-Phe-Cys]-Asp-His-Phe-Arg-Asp-NH2]	> 8	> 8	–
Hexanoyl-CPPTEFCDHFRD-NH2 (linker 1-7 via mXylylene; SMILES CCCCCC(=O)N[C@H]1CSCc2cccc(c2)CSC[C@@H](C(=O)N[C@@H](CC(=O)O)C(=O)N[C@@H](Cc2c[nH]cn2)C(=O)N[C@@H](Cc2ccccc2)C(=O)N[C@@H](CCCNC(=N)N)C(=O)N[C@@H](CC(=O)O)C(N)=O)NC(=O)[C@H](Cc2ccccc2)NC(=O)[C@H](CCC(=O)O)NC(=O)[C@H]([C@@H](C)O)NC(=O)[C@@H]2CCCN2C(=O)[C@@H]2CCCN2C1=O) [Hex-[Cys(3MeBn)-Pro-Pro-Thr-Glu-Phe-Cys]-Asp-His-Phe-Arg-Asp-NH2]	–	–	> 8
Ac-MCPPTEFCDH[dF]RD-NH2 (linker 2-8 via mXylylene; SMILES CSCC[C@H](NC(C)=O)C(=O)N[C@H]1CSCc2cccc(c2)CSC[C@@H](C(=O)N[C@@H](CC(=O)O)C(=O)N[C@@H](Cc2c[nH]cn2)C(=O)N[C@H](Cc2ccccc2)C(=O)N[C@@H](CCCNC(=N)N)C(=O)N[C@@H](CC(=O)O)C(N)=O)NC(=O)[C@H](Cc2ccccc2)NC(=O)[C@H](CCC(=O)O)NC(=O)[C@H]([C@@H](C)O)NC(=O)[C@@H]2CCCN2C(=O)[C@@H]2CCCN2C1=O, also called 3BP-3211) [Ac-Met-[Cys(3MeBn)-Pro-Pro-Thr-Glu-Phe-Cys]-Asp-His-phe-Arg-Asp-NH2]	> 8	> 8	–
Ac-MCPPTEFCDHFR-NH2 (linker 2-8 via mXylylene; SMILES CSCC[C@H](NC(C)=O)C(=O)N[C@H]1CSCc2cccc(c2)CSC[C@@H](C(=O)N[C@@H](CC(=O)O)C(=O)N[C@@H](Cc2c[nH]cn2)C(=O)N[C@@H](Cc2ccccc2)C(=O)N[C@@H](CCCNC(=N)N)C(N)=O)NC(=O)[C@H](Cc2ccccc2)NC(=O)[C@H](CCC(=O)O)NC(=O)[C@H]([C@@H](C)O)NC(=O)[C@@H]2CCCN2C(=O)[C@@H]2CCCN2C1=O, also called 3BP-3200) [Ac-Met-[Cys(3MeBn)-Pro-Pro-Thr-Glu-Phe-Cys]-Asp-His-Phe-Arg-NH2]	> 8	> 8	–
Hexanoyl-CPPTEFCDH[4Pal][dR][Ttds″]K(DOTA)-NH2 (linker 1-7 via mXylylene; SMILES CCCCCC(=O)N[C@H]1CSCc2cccc(c2)CSC[C@@H](C(=O)N[C@@H](CC(=O)O)C(=O)N[C@@H](Cc2c[nH]cn2)C(=O)N[C@@H](Cc2ccncc2)C(=O)N[C@H](CCCNC(=N)N)C(=O)NCCCOCCOCCOCCCNC(=O)CCC(=O)N[C@@H](CCCCNC(=O)CN2CCN(CC(=O)O)CCN(CC(=O)O)CCN(CC(=O)O)CC2)C(N)=O)NC(=O)[C@H](Cc2ccccc2)NC(=O)[C@H](CCC(=O)O)NC(=O)[C@H]([C@@H](C)O)NC(=O)[C@@H]2CCCN2C(=O)[C@@H]2CCCN2C1=O, also called 3BP-3277) [Hex-[Cys(3MeBn)-Pro-Pro-Thr-Glu-Phe-Cys]-Asp-His-Ppa-arg-Ttds-Lys(DOTA)-NH2]	> 8	> 8	–
